2 substances from article PMC4262734 can be followed below.

This assay addresses HA-Cdk2 (UniProt P24941). The assay is described as follows: co-IP; HeLa cells co-overexpressing wild-type or mutant Flag-p27Xic1 with HA-Cdk2; binding quantified against wild type (mean ± SEM).

Turning to Flag-p27Xic1 T68A (natural protein), the increase of binding against wild-type p27Xic1 came to 140%. Regarding Flag-p27Xic1 T68E (natural protein), the reduction of binding against wild-type p27Xic1 stood at 50%.
